In patent US8470599B2, “Renal progenitor cells from embryonic stem cells” (The Regents of the University of Michigan, priority 2005, dated 2013):

B1: bmp-7: growth factor (R & D Systems), third component of the nephrogenic cocktail (protein, UniProt P18075 293-431, looked up)
Bone morphogenetic protein 7: STGSKQRSQNRSKTPKNQEALRMANVAENSSSDQRQACKKHELYVSFRDLGWQDWIIAPEGYAAYYCEGECAFPLNSYMNATNHAIVQTLVHFINPETVPKPCCAPTQLNAISVLYFDDSSNVILKKYRNMVVRACGCH
B2: bmp4: growth factor (R & D Systems) added to retinoic acid and activin-a treated EBs (protein, UniProt P12644 293-408, looked up)
Bone morphogenetic protein 4: SPKHHSQRARKKNKNCRRHSLYVDFSDVGWNDWIVAPPGYQAFYCHGDCPFPLADHLNSTNHAIVQTLVNSVNSSIPKACCVPTELSAISMLYLDEYDKVVLKNYQEMVVEGCGCR

Test system: EB derived cells in E12.5 cultured kidney rudiments
Experiment: Injection of EB derived cells into E12.5 cultured kidney rudiments, lacZ / laminin / LTA staining
Format: cell-based, mouse
Conditions: for contribution to developing tubules: compared to untreated EB cells, rudiments 4 or 5 days after injection
Method: Cryosections from kidney rudiments were stained for lacZ expression (A & C) and with anti-laminin antibodies (B & D). […] C & D) Many lacZ positive cells from control EBs were found in large and small aggregates (arrows) that remained mesenchymal in appearance and were not surrounded by laminin containing basement membranes. Some blue cells from control EBs were also found in tubules. Magnification bars are 100 microns.
E12.5 kidney rudiments were injected with RA7 treated EB cells (A-F) or control EB cells (G & H) and stained for lacZ, laminin, and LTA binding. […] Arrows point to glomerular tufts. B) Laminin staining of same tissue as in A. C & D) Co-localization of lacZ positive cells in developing proximal tubules (arrows) that also stain with LTA lectin (green) and are surrounded by laminin containing basement membranes (red). E & F) Another developing proximal tubule derived from RA7 treated EB cells (arrow) stained as above. G & H) Many control EB cells localize to interstitial and peripheral mesenchyme (arrows), though a small number of lacZ positive cells are also found in tubules.
This example describes cell culture and microinjection techniques utilized in experiments conducted during the course of the present invention. Mouse ES cells (R26) were grown in high glucose DMEM (GIBCO BRL), 10% fetal bovine serum (Atlanta Biologicals), 0.1 mM β-mercaptoethanol (Sigma), 4 mM glutamine (GIBCO BRL), 20 unit/ml PEN/STREP (GIBCO BRL), 0.1 mg/ml G418 (GIBCO BRL), and 10^3 unit/ml rLIF (Chemicon) on a 0.1% gelatin-coated tissue culture plate at 37° C. CO2 incubator for 2 days. The ES cells were transferred using 0.05% trypsin plus 0.53 mM EDTA (GIBCO BRL) to a 100-mm bacteriological petri dish (Falcon) to induce embryoid body (EB) formation. The EB suspension was cultured in the same medium without rLIF for 2 days and then transferred to 60-mm tissue culture plates coated with 0.1% gelatin. Each 60-mm tissue culture plate contained about 100 EBs. […]

Row | Molecule | contribution to developing tubules | ability of EB cells to contribute to tubules in vitro (addition of 100 ng/ml bmp4)
1 | B1 | enhanced | –
2 | B2 | did not integrate | completely inhibited
